From patent publication US20180117147A1

Assays:
[1] = biological target: human KIR2DL3 expressed on NK and T lymphocytes of KIR2DL3 transgenic C57Bl/6 mice (human) (UniProt P43628); assay: in vivo receptor occupancy in whole blood of KIRtgB6 mice, 20 mg/kg iv, for 14 days
[2] = biological target: human KIR2DL3 expressed on NK and T lymphocytes of KIR2DL3 transgenic C57Bl/6 mice (human) (UniProt P43628); assay: in vivo receptor occupancy in KIRtgB6 mice, 10 mg/kg iv, for 8 days

Chain of UniProt P43628 (P43628 22-341): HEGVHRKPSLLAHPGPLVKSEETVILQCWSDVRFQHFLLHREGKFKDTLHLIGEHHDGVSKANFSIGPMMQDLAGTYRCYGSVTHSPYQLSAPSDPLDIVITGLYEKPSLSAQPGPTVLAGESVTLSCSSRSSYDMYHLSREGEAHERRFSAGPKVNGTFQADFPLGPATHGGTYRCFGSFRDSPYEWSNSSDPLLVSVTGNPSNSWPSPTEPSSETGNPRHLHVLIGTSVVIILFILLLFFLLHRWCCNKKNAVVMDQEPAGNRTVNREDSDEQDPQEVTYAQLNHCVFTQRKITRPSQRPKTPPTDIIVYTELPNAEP

KIR receptor occupancy [1]: > 90%
KIR receptor occupancy [2]: > 90%
Substance: Anti-KIR antibody clone GL183
